# Data: paper PMC314469, “Protein Interaction Networks by Proteome Peptide Scanning” (PLoS Biology, 2004)
# T1: Boi1 SH3 (BOI1_YEAST), P38041
# T1 chain: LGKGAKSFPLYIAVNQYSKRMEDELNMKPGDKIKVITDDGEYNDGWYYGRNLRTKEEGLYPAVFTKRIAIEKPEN
# T2: Boi2 SH3 (BOI2_YEAST), P39969
# T2 chain: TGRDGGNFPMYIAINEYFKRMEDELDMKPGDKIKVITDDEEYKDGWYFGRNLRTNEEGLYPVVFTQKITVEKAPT
# T3: Rvs167 SH3 (RV167_YEAST), P39743
# T3 chain: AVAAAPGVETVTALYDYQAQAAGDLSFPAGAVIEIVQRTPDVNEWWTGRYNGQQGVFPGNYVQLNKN
# T4: Yfr024 SH3 (LSB3_YEAST), P43603
# T4 chain: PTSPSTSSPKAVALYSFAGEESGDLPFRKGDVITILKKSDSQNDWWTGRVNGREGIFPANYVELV
# T5: Yhr016c SH3 (YSC84_YEAST), P32793
# T5 chain: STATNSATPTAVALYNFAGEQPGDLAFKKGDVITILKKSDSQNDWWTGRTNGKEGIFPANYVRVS
# Columns and labels:
# Test in all cases: SPOT array
# [1] = target: T1, Boi1 SH3 (BOI1_YEAST), P38041
# [2] = target: T2, Boi2 SH3 (BOI2_YEAST), P39969
# [3] = target: T3, Rvs167 SH3 (RV167_YEAST), P39743
# [4] = target: T4, Yfr024 SH3 (LSB3_YEAST), P43603
# [5] = target: T5, Yhr016c SH3 (YSC84_YEAST), P32793
"normalised SPOT signal, Boehringer light units (BLU); mean over the file's lines of this peptide [1]","normalised SPOT signal, Boehringer light units (BLU); mean over the file's lines of this peptide [2]","normalised SPOT signal, Boehringer light units (BLU); mean over the file's lines of this peptide [3]","normalised SPOT signal, Boehringer light units (BLU); mean over the file's lines of this peptide [4]","normalised SPOT signal, Boehringer light units (BLU); mean over the file's lines of this peptide [5]",Binder
86.5,37.3,8.3,19.3,96.5,LEQPAEPSKLAKKL [YMR108W 66-79]
146,31.8,56.4,277,142,LHYPYGPARNPSYI [YJR126C 313-326]
153,234,129,1260,211,LHVPRNPSKSRRGS [YLR310C 161-174]
0,13.6,47.9,126,227,LHDPLVPIKSYGLT [YMR185W 739-752]
91.9,30.3,19.9,88.8,174,LFGPSFPNKTTVEI [YNL197C 178-191]
24.8,19.8,28.2,0,302,LIDPSTPDKAAKKD [YGR083C 353-366]
103,77.4,107,288,150,LHGPFKPVKSSNGE [YER134C 25-38]
98.8,73.9,10.7,68.3,161,LGEPFDPNKHEATF [YOR232W 175-188]
140,25.3,59.5,1510,250,LGAPFSPRRKDKLV [YJL172W 363-376]
